The values that follow are results of earlier work, collected in patent US12628856B2, “Nutritional composition having lipophilic compounds with improved solubility and bioavailability” (Abbott Laboratories, priority 2013, dated 2026).

For this data set the following is noted: Kd Source: Published; read-out: Lutein Kd.

B1: GSTP1: reference protein with published lutein Kd (protein, UniProt P09211 2-210, looked up)
Glutathione S-transferase P: PPYTVVYFPVRGRCAALRMLLADQGQSWKEEVVTVETWQEGSLKASCLYGQLPKFQDGDLTLYQSNTILRHLGRTLGLYGKDQQEAALVDMVNDGVEDLRCKYISLIYTNYEAGKDDYVKALPGQLKPFETLLSQNQGGKTFIVGDQISFADYNLLDLLLIHEVLAPGCLDAFPLLSAYVGRLSARPKLKAFLASPEYVNLPINGNGKQ
Broadly, the Kd is the concentration at which binding is half-saturated. Take B1: the dissociation constant (Kd) was 1350 nM.

B2: StARD3: reference protein with published lutein Kd (protein, UniProt Q14849 1-445, looked up)
StAR-related lipid transfer …: MSKLPRELTRDLERSLPAVASLGSSLSHSQSLSSHLLPPPEKRRAISDVRRTFCLFVTFDLLFISLLWIIELNTNTGIRKNLEQEIIQYNFKTSFFDIFVLAFFRFSGLLLGYAVLRLRHWWVIAVTTLVSSAFLIVKVILSELLSKGAFGYLLPIVSFVLAWLETWFLDFKVLPQEAEEERWYLAAQVAVARGPLLFSGALSEGQFYSPPESFAGSDNESDEEVAGKKSFSAQEREYIRQGKEATAVVDQILAQEENWKFEKNNEYGDTVYTIEVPFHGKTFILKTFLPCPAELVYQEVILQPERMVLWNKTVTACQILQRVEDNTLISYDVSAGAAGGVVSPRDFVNVRRIERRRDRYLSSGIATSHSAKPPTHKYVRGENGPGGFIVLKSASNPRVCTFVWILNTDLKGRLPRYLIHQSLAATMFEFAFHLRQRISELGARA
Consider B2, for which the equilibrium dissociation constant (Kd) is 450 nM.
